Patent publication US20170333548A1

Columns and labels:
Experiment in all cases: cell-based or functional assay
[1] = target: wild-type DENV4 E glycoprotein (Parent_WT_DENV4), on virus particles (Dengue virus 4) (UniProt P09866)
[2] = target: DV4-EDIII-DV2 chimeric E glycoprotein (DENV4 backbone with DENV2 envelope domain III), on virus particles (Dengue virus 4/2)
[3] = target: wild-type DENV2 E glycoprotein (Parent_WT_DENV2), on virus particles (Dengue virus 2) (UniProt P07564)

human monoclonal antibody 2D22 was tested, and the FRNT50 (Vero-81 focus reduction neutralization test) [1] was > 5 ng/µL, the FRNT50 (Vero-81 focus reduction neutralization test) [2] was 0.01 ng/µL and the FRNT50 (Vero-81 focus reduction neutralization test) [3] was 0.1 ng/µL.
